Data taken from patent EP4725963A1 (Jiangsu Hengrui Pharmaceuticals Co., Ltd., dated 2026).
Read-outs that look alike come from different tables or passages of the source.

What was measured:
[1] = target: T1, human NPR1 full-length protein overexpressed on CHO-K1 cells (human, UniProt P16066 33-1061); experiment: flow cytometry on hNPR1-expressing CHO-K1 cells, without ANP
T1 construct: also called hNPR1-CHOK1; hNPR1 CHO-K1
T1 sequence: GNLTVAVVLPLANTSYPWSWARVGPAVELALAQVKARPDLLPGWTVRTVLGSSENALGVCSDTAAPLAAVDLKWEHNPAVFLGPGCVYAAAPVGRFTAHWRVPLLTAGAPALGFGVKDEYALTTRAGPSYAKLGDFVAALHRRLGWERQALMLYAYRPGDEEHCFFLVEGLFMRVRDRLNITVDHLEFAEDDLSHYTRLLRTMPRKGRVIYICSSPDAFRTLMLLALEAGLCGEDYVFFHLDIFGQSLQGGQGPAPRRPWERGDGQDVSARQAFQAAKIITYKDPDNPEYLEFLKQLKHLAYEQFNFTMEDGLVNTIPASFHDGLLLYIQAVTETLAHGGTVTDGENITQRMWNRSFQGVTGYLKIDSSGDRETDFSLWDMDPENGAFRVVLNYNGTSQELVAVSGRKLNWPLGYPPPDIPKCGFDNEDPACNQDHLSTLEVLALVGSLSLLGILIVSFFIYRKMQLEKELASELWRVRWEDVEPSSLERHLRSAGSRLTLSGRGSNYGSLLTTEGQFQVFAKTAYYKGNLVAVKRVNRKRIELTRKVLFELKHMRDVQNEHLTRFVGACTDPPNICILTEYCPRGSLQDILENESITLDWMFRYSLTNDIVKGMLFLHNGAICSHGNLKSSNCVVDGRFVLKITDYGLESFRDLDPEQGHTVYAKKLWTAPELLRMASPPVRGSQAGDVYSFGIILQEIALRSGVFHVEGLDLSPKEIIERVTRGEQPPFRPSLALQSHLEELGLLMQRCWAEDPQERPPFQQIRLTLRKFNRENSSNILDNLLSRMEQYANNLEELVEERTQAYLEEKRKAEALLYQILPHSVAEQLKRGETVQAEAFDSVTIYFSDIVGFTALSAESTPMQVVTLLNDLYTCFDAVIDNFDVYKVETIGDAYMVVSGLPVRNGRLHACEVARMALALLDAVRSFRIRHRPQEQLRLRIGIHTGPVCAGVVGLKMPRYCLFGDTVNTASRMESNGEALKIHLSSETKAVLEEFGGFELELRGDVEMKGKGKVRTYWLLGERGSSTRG

[2] = target: T2, cynomolgus monkey NPR1 full-length protein overexpressed on CHO-K1 cells (cynomolgus monkey); experiment: flow cytometry on cNPR1-expressing CHO-K1 cells, antibody pre-mixed with 10 nM ANP
T2 construct: whole, on cells; also called cNPR1-CHOK1; cNPR1 CHO-K1

[3] = target: T2, cynomolgus monkey NPR1 full-length …; experiment: flow cytometry on cNPR1-expressing CHO-K1 cells, without ANP
[4] = target: T1, human NPR1 full-length protein …; experiment: flow cytometry on hNPR1-expressing CHO-K1 cells, antibody pre-mixed with 10 nM ANP
[5] = target: T1, human NPR1 full-length protein …; experiment: cell-based or functional assay
[6] = target: T1, human NPR1 full-length protein …; experiment: cell-based or functional assay; remark: listed apart in the source
hNPR2 = target: T3, hNPR2 (human, UniProt P20594 23-458, limits assumed); experiment: ELISA, plate coated with 4 µg/mL antigen
T3 construct: Commercial protein; construct not described; also called hNPR2 antigen
T3 sequence (looked up): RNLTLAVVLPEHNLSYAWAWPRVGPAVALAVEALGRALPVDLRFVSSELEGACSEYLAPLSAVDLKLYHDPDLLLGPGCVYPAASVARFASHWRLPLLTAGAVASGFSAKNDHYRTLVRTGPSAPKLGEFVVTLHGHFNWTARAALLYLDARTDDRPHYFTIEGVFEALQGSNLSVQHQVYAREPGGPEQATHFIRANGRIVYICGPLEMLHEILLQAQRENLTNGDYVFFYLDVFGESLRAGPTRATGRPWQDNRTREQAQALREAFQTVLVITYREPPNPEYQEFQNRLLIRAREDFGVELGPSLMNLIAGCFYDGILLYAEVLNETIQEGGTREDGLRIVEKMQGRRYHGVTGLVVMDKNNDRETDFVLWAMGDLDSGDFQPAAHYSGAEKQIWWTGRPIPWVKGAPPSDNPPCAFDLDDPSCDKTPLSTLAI

[7] = target: T4, fusion protein of the human NPR1 protein extracellular domain and human-IgG1-Fc (human); experiment: ELISA, plate coated with 4 µg/mL hNPR1 antigen
T4 construct: also called hNPR1-hFc; hNPR1

[8] = target: T1, human NPR1 full-length protein …; experiment: cell-based or functional assay; remark: listed apart in the source
[9] = target: T1, human NPR1 full-length protein …; experiment: cell-based or functional assay; remark: listed apart in the source
[10] = target: T1, human NPR1 full-length protein …; experiment: cell-based or functional assay; remark: listed apart in the source
[11] = target: T1, human NPR1 full-length protein …; experiment: cell-based or functional assay; remark: listed apart in the source

T4 sequence (chain, as listed by the source limits assumed): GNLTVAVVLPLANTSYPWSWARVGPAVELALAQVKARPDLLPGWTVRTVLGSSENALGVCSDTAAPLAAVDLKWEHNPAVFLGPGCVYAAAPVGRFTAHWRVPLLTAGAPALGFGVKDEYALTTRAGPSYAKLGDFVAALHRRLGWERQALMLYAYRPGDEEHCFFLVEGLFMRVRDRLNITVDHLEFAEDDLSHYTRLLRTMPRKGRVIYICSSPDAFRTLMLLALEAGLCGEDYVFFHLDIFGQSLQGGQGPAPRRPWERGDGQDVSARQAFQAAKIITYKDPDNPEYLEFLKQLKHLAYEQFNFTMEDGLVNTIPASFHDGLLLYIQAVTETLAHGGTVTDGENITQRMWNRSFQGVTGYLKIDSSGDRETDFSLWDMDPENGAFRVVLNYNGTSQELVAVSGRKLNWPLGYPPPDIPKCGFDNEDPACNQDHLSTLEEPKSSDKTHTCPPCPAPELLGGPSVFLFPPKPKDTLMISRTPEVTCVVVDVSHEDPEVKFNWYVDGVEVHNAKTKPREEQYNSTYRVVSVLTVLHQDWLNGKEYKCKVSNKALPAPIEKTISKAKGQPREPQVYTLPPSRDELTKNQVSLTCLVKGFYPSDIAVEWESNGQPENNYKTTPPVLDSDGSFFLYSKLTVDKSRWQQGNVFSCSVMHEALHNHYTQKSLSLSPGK

B1: CHI-135 (antibody, human IgG1, kappa, V domains shown)
VH: DVKLVESGEGLVKPGGSLKLSCVASGFSISTYGMSWVRQTPEKRLEWVAYINSGGNYIYYADTVKGRFTISRDNARNTLYLQMSSLKSEDTAMYYCTRDRTTIVVHWYFDVWGTGTTVTVSS
VL: QIVLTQSPAIMSASPGEKVTMTCSASSSLNFMHWYQQKPGTSPKRWIYDTSKLASGVPARFSGSGSGTSYSLTISSMEAEDAATYYCHQRSSTFGGGTKLELKR
notes: Chimeric human IgG1/kappa; also called NPR1-CHAb-SFM-135; chimeric antibody of murine antibody 135
EC50 [1]: 4.39 nM
EC50 [2]: 1.63 nM
EC50 [3]: 3.59 nM
EC50 [4]: 2.49 nM

B2: CHI-127 (antibody, human IgG1, kappa, V domains shown)
VH: QAYLQQSGPELVKPGASVKISCKASGYSFTGYFMNWVMQSHGKSLEWIGRINPYNGDTFYNQKFKGKATLTVDKSSSTVHMELRSLASEDSAVYYCARRGYGNRGYWYFDVWGAGTTVTVSS
VL: NIVLTQSPASLAVSLGQRATISCRASESVDSYGNSFMHWYQQKPGQPPKVLIYLASTLESGVPARFSGSGSRTDFTLTIDPVEADDAATYYCQQNNEDPLTFGAGTKLELKR
notes: Chimeric human IgG1/kappa; also called NPR1-CHAb-SFM-127-1; chimeric antibody of murine antibody 127
cGMP production: EC50 [5]: 42.7 nM
cGMP production: Emax [5]: 0.43
cGMP production: Emin [5]: 0.077
EC50 [1]: 1.73 nM
EC50 [2]: 1.28 nM
EC50 [3]: 1.19 nM
EC50 [4]: 1.74 nM

B3: Hu135H3L1 (antibody, human IgG1, kappa, L234A L235A, V domains shown)
VH: DVKLVESGEGLVKPGGSLRLSCAASGFSISTYGMSWVRQAPGKRLEWVAYINSGGNYIYYADSVKGRFTISRDNAKNSLYLQMNSLRAEDTAVYYCTRDRTTIVVHWYFDVWGQGTTVTVSS
VL: DIQLTQSPSSLSASVGDRVTITCSASSSLNFMHWYQQKPGKSPKRWIYDTSKLASGVPSRFSGSGSGTDYTLTISSLQPEDFATYYCHQRSSTFGGGTKVEIKR
notes: Humanized, human IgG1 LALA/kappa; also called Hul35H3L1
cGMP production: EC50 [6]: 171 nM
cGMP production: Emax [6]: 0.43
cGMP production: Emin [6]: 0.179
binding result (hNPR2): no binding (tested: 20 µg/mL (highest concentration))
EC50 [7]: 0.02 nM
Ratio (without ANP) of NPR1 antigens remaining on the cell surface after endocytosis to the initial number, 10 min, 20 µg/mL [8]: 0.85 ratio
Ratio (without ANP) of NPR1 antigens remaining on the cell surface after endocytosis to the initial number, 1 h, 20 µg/mL [8]: 0.67 ratio
Ratio (without ANP) of NPR1 antigens remaining on the cell surface after endocytosis to the initial number, 7 hrs, 20 µg/mL [8]: 0.63 ratio
Ratio (without ANP) of NPR1 antigens remaining on the cell surface after endocytosis to the initial number, 24 hrs, 20 µg/mL [8]: 0.76 ratio

B4: Hu102H4L6 (antibody, human IgG1, kappa, L234A L235A, V domains shown)
VH: DVKLVESGEGLVKPGGSLRLSCAASGFTFSSYAMSWVRQAPGKRLEWVAYISRGGDYIYYADSVKGRFTISRDNAKNSLYLQMNSLRAEDSAVYYCTRDQTTVVVHWYFDVWGQGTTVTVSS
VL: DIQLTQSPSSLSASVGDRVTITCSASSSINYMHWYQQKPGKSPKRWIYDTSKLASGVPSRFSGSGSGTDYTLTISSLQPEDFATYYCHQRNSYTFGGGTKVEIKR
notes: Humanized, human IgG1 LALA/kappa; also called Hul02H4L6
binding result (hNPR2): no binding (tested: 20 µg/mL (highest concentration))
EC50 [7]: 1.32 nM
cGMP production: EC50 [9]: 45.9 nM
cGMP production: Emax [9]: 0.65
cGMP production: Emin [9]: 0.17
Ratio (without ANP) of NPR1 antigens remaining on the cell surface after endocytosis to the initial number, 10 min, 20 µg/mL [8]: 1.14 ratio
Ratio (without ANP) of NPR1 antigens remaining on the cell surface after endocytosis to the initial number, 1 h, 20 µg/mL [8]: 0.58 ratio
Ratio (without ANP) of NPR1 antigens remaining on the cell surface after endocytosis to the initial number, 7 hrs, 20 µg/mL [8]: 0.53 ratio
Ratio (without ANP) of NPR1 antigens remaining on the cell surface after endocytosis to the initial number, 24 hrs, 20 µg/mL [8]: 0.73 ratio

B5: Hu140H5L5-11 (antibody, human IgG1, kappa, L234A L235A, V domains shown)
VH: QVQLVQSGAEVKKPGASVKVSCKASGYTFTSYWMHWVRQAPGQGLEWMGRIDPNSGVTKYNEKFKSRVTLTVDKPSSPAYMELSSLRSEDTAVYYCARSGGLRRYFDVWGQGTTVTVSS
VL: EIVLTQSPATLSLSPGERAQLSCSASSSVSYMYWYQQKPGQAPRLLIYDTYNLASGVPDRFSGSGSGTSYTLTISRLEPEDFAVYYCQQWSSYPPTFGAGTKLEIKR
notes: Humanized, human IgG1 LALA/kappa
cGMP production: EC50 [10]: 36 nM
binding result (hNPR2): no binding (tested: 20 µg/mL (highest concentration))
EC50 [7]: 8.65 nM
Ratio (without ANP) of NPR1 antigens remaining on the cell surface after endocytosis to the initial number, 10 min, 20 µg/mL [8]: 1.31 ratio
Ratio (without ANP) of NPR1 antigens remaining on the cell surface after endocytosis to the initial number, 1 h, 20 µg/mL [8]: 0.86 ratio
Ratio (without ANP) of NPR1 antigens remaining on the cell surface after endocytosis to the initial number, 7 hrs, 20 µg/mL [8]: 1.11 ratio
Ratio (without ANP) of NPR1 antigens remaining on the cell surface after endocytosis to the initial number, 24 hrs, 20 µg/mL [8]: 1.02 ratio

B6: Hu128H3L1 (antibody, human IgG1, kappa, L234A L235A, V domains shown)
VH: EVQLVQSGAEVKKPGASVKVSCKASGYTFTSYWMHWVRQAPGQGLEWMGRIDPNSGVTKYNEKFKSRVTLTVDKPSSPAYMELSSLRSEDTAVYYCARSSYLGRYFDVWGQGTTVTVSS
VL: EIVLTQSPATLSLSPGERATLSCSATSSVSYMYWYQQKPGQAPRLLIYDTYNLASRIPARFSGSGSGTDYTLTISRLEPEDFAVYYCQQWSSYPPTFGQGTKLEIKR
cGMP production: EC50 [11]: 5.8 nM

B7: Hu128H3L2 (antibody, human IgG1, kappa, L234A L235A, V domains shown)
VH: EVQLVQSGAEVKKPGASVKVSCKASGYTFTSYWMHWVRQAPGQGLEWMGRIDPNSGVTKYNEKFKSRVTLTVDKPSSPAYMELSSLRSEDTAVYYCARSSYLGRYFDVWGQGTTVTVSS
VL: EIVLTQSPATLSLSPGERATLSCSATSSVSYMYWYQQKPGSSPRLLIYDTYNLASRIPARFSGSGSGTDYTLTISRLEPEDFAVYYCQQWSSYPPTFGQGTKLEIKR
cGMP production: EC50 [11]: 4.6 nM

B8: Hu140H5L5 (antibody, human IgG1, kappa, L234A L235A, V domains shown)
VH: QVQLVQSGAEVKKPGASVKVSCKASGYTFTSYWMHWVRQAPGQGLEWMGRIDPNSGVTKYNEKFKSRVTLTVDKPSSPAYMELSSLRSEDTAVYYCARSGGLRRYFDVWGQGTTVTVSS
VL: EIVLTQSPATLSLSPGERATLSCSASSSVSYMYWYQQKPGQAPRLLIYDTYNLASGVPARFSGSGSGTSYTLTISRLEPEDFAVYYCQQWSSYPPTFGAGTKLEIKR
cGMP production: EC50 [10]: 40.9 nM
